Our source for the Kd values is the Immune Epitope Database (IEDB).

In assay [1] the target is HLA-B*39:01. Description: IEDB peptide-MHC binding, purified MHC/direct/fluorescence; filed as Kd, often an IC50 or EC50 that approximates it; ≥ and ≤ were set here for values at or beyond the usual limits of such assays.
Assay [2] concerns the target HLA-A*03:01. The description is as above.
Assay [3] has as its target HLA-A*11:01. The description is as above.
In assay [4] the target is HLA-A*31:01. Description: IEDB peptide-MHC binding, purified MHC/competitive/fluorescence; filed as Kd, often an IC50 or EC50 that approximates it; ≥ and ≤ were set here for values at or beyond the usual limits of such assays.
The target in assay [5] is HLA-B*07:02. Description: IEDB peptide-MHC binding, purified MHC/direct/fluorescence; filed as Kd, often an IC50 or EC50 that approximates it; ≥ and ≤ were set here for values at or beyond the usual limits of such assays.
The target of assay [6] is HLA-B*51:01. The assay is described as above.
Assay [7] addresses HLA-B*15:09. Described as above.
The target of assay [8] is HLA-B*39:01. Description: IEDB peptide-MHC binding, purified MHC/competitive/fluorescence; filed as Kd, often an IC50 or EC50 that approximates it; ≥ and ≤ were set here for values at or beyond the usual limits of such assays.
In assay [9] the target is HLA-A*01:01. Description: IEDB peptide-MHC binding, purified MHC/direct/fluorescence; filed as Kd, often an IC50 or EC50 that approximates it; ≥ and ≤ were set here for values at or beyond the usual limits of such assays.
The target of assay [10] is HLA-A*24:03. The assay is described as above. Conditions: source organism: Convict Creek 107 virus.
Assay [11] has as its target HLA-A*29:02. The description is as above.
Assay [12] addresses HLA-A*31:01. The assay is described as above.
Assay [13] addresses HLA-A*68:02. The description is as above. Conditions: source organism: Convict Creek 107 virus.
Assay [14] deals with HLA-A*69:01. The description is as above.
Assay [15] deals with HLA-B*08:01. The description is as above. The note with it: source organism: Orthohantavirus andesense.
Assay [16] has as its target HLA-B*18:01. The assay is described as above.
Assay [17] addresses HLA-B*27:05. The assay is described as above.
Assay [18] deals with HLA-B*40:01. The description is as above.
Assay [19] has as its target HLA-B*46:01. The assay is described as above.
In assay [20] the target is HLA-B*57:01. Described as above.
Assay [21] has as its target HLA-B*58:01. The description is as above.
Assay [22] addresses HLA-A*26:01. In words: IEDB peptide-MHC binding, purified MHC/competitive/fluorescence; filed as Kd, often an IC50 or EC50 that approximates it; ≥ and ≤ were set here for values at or beyond the usual limits of such assays. Conditions: source organism: Orthohantavirus sinnombreense.
Assay [23] deals with HLA-B*15:17. Described as above. Conditions: source organism: Orthohantavirus sinnombreense.
The target of assay [24] is HLA-B*27:03. The assay is described as above. The note with it: source organism: Orthohantavirus sinnombreense.
The target in assay [25] is HLA-B*51:01. The assay is described as above. The note with it: source organism: Orthohantavirus sinnombreense.
Assay [26] has as its target HLA-A*03:01. Described as above.
Assay [27] has as its target HLA-A*02:01. In words: IEDB peptide-MHC binding, purified MHC/direct/fluorescence; filed as Kd, often an IC50 or EC50 that approximates it; ≥ and ≤ were set here for values at or beyond the usual limits of such assays.
The target of assay [28] is HLA-A*02:11. The description is as above. Conditions: source organism: Rickettsia prowazekii.
In assay [29] the target is HLA-A*02:19. The assay is described as above. Conditions: source organism: Rickettsia prowazekii.
Assay [30] deals with HLA-B*15:01. The assay is described as above.
For assay [31], the target named is HLA-B*44:02. Described as above. Conditions: source organism: Mycolicibacterium gilvum.
The target of assay [32] is HLA-B*48:01. The description is as above.
In assay [33] the target is HLA-B*15:01. Description: IEDB peptide-MHC binding, purified MHC/competitive/fluorescence; filed as Kd, often an IC50 or EC50 that approximates it; ≥ and ≤ were set here for values at or beyond the usual limits of such assays. The note with it: source organism: Salmonella enterica subsp. enterica serovar Typhi.
The target in assay [34] is HLA-B*15:17. Description: IEDB peptide-MHC binding, purified MHC/direct/fluorescence; filed as Kd, often an IC50 or EC50 that approximates it; ≥ and ≤ were set here for values at or beyond the usual limits of such assays. Conditions: source organism: Influenza A virus (A/duck/Hokkaido/1130/01(H1N1)).
Assay [35] concerns the target HLA-A*02:03. In words: IEDB peptide-MHC binding, purified MHC/competitive/fluorescence; filed as Kd, often an IC50 or EC50 that approximates it; ≥ and ≤ were set here for values at or beyond the usual limits of such assays. Conditions: source organism: Influenza A virus (A/81/HO).
In assay [36] the target is HLA-B*08:01. In words: IEDB peptide-MHC binding, purified MHC/competitive/radioactivity; filed as Kd, often an IC50 or EC50 that approximates it; ≥ and ≤ were set here for values at or beyond the usual limits of such assays. Conditions: source organism: Dengue virus 4 Philippines/H241/1956.
Setting [37] is: source organism: Bacillus anthracis.
Where [38] appears, read: source organism: Giardia lamblia ATCC 50803.
Where [39] appears, read: source organism: Vibrio parahaemolyticus AQ3810.
Where [40] appears, read: source organism: Orthohantavirus andesense.
The mark [41] stands for this setting: source organism: Escherichia coli O139:H28 str. E24377A.
[42] abbreviates: source organism: Rickettsia prowazekii.
[43] abbreviates: source organism: Mycolicibacterium gilvum.
Setting [44] is: source organism: Salmonella enterica subsp. enterica serovar Typhi.
Where [45] appears, read: source organism: Influenza A virus (A/duck/Hokkaido/1130/01(H1N1)).
[46] abbreviates: source organism: Shigella boydii.

For orientation: Kd means a measure of binding affinity in units of concentration.

As to FHGAKEIAL, the Kd in assay [1] (source organism: Influenza A virus H3N2) turned out to be 0.175 µM.

For GTGAGVPSK, the Kd was determined as 1.14 µM in assay [2] (setting [37]), 0.0113 µM in assay [3] (setting [37]) and 0.644 µM in [4] (source organism: Bacillus anthracis str. A0488).

EALAMCLPY: the Kd in [5] (setting [38]) is 5.2 µM; in [6] (setting [38]), ≥ 20 µM.

Turning to TVDSLSPLK, the Kd in assay [2] (setting [38]) is 0.364 µM; in [3] (setting [38]), 0.0123 µM; in [4] (setting [38]), ≥ 20 µM.

With EQYGPRHTL, the figures for the Kd in assay [7] (setting [39]) and in [1] (setting [39]) were 0.18 µM and 0.004 µM, respectively.

EHFLGIWGL: the Kd in assay [7] (source organism: Bacillus cereus H3081.97) amounted to 0.094 µM; in assay [8] (source organism: Bacillus thuringiensis str. Al Hakam), 0.0179 µM.

YLQAKSQVL: the Kd in [9] (setting [40]), in assay [2] (setting [40]), in [3] (setting [40]), in [10], in assay [11] (setting [40]) and in [12] (setting [40]) was ≥ 20 µM in each case. Also, the equilibrium dissociation constant (Kd) in assay [13] is ≥ 20 µM; in assay [14] (setting [40]), ≥ 20 µM; in [15] it was 0.471 µM; in assay [16] (setting [40]), ≥ 20 µM; in assay [17] (setting [40]) it was ≥ 20 µM; in [18] (setting [40]) it was ≥ 20 µM. The Kd in assay [19] (setting [40]), in assay [20] (setting [40]), in [21] (setting [40]), in assay [22], in assay [23] and in assay [24] was ≥ 20 µM in each case. Further, the Kd in [25] was ≥ 20 µM.

Consider GINWKHPKR, for which the figures for the Kd in [26] (setting [41]) and in [4] (setting [41]) were 1.57 µM and 0.199 µM, respectively.

As for FGSGWTWVV, the Kd in assay [27] (setting [42]) was 0.669 µM; in assay [28], ≤ 0.001 µM; in assay [29] it was ≤ 0.001 µM; in assay [14] (setting [42]), 1.18 µM.

For AVSRGTAKL, the Kd in assay [6] (source organism: Alkhumra hemorrhagic fever virus) is ≥ 20 µM.

For the sequence PHDPDFLVL, the dissociation constant (Kd) in assay [9] (setting [43]), in assay [27] (setting [43]), in assay [2] (setting [43]), in assay [11] (setting [43]), in [12] (setting [43]) and in [14] (setting [43]) was ≥ 20 µM in each case. The dissociation constant (Kd) is ≥ 20 µM in assay [30] (setting [43]); ≥ 20 µM in [16] (setting [43]); ≥ 20 µM in [17] (setting [43]); 6.76 µM in assay [1] (source organism: Mycolicibacterium gilvum PYR-GCK); ≥ 20 µM in [18] (setting [43]); ≥ 20 µM in [31]. In addition, the Kd in assay [19] (setting [43]), in [32] (setting [43]), in [20] (setting [43]) and in assay [21] (setting [43]) was ≥ 20 µM throughout.

As to MTDAIRTLK, the Kd in [26] (setting [44]) is 0.134 µM; in assay [4] (setting [44]), 2.31 µM; in assay [33], ≥ 20 µM.

For the sequence ELRSRYWAI, the Kd was ≥ 20 µM in assay [9] (setting [45]); ≥ 20 µM in assay [27] (setting [45]); ≥ 20 µM in [2] (setting [45]); ≥ 20 µM in assay [3] (setting [45]); 0.151 µM in assay [14] (setting [45]); ≥ 20 µM in [5] (setting [45]). Besides, the Kd was ≥ 20 µM in [30] (setting [45]); ≥ 20 µM in assay [34]; 2.45 µM in assay [16] (setting [45]); ≥ 20 µM in assay [17] (setting [45]); ≥ 20 µM in assay [18] (setting [45]); ≥ 20 µM in [19] (setting [45]). Also, the Kd in [32] (setting [45]), in assay [6] (setting [45]), in assay [20] (setting [45]), in [21] (setting [45]), in assay [35] and in assay [4] (source organism: Influenza A virus (A/81/HO)) was ≥ 20 µM each time.

Consider MPVMKRYSA, for which the Kd was ≥ 20 µM in [6] (source organism: dengue virus type 4) and 0.00838 µM in assay [36].

YRYEFNNDW: the Kd is ≥ 20 µM in assay [7] (source organism: Yersinia pestis CA88-4125) and 0.996 µM in [8] (source organism: Yersinia pseudotuberculosis IP 31758).

Consider PLSRLFYPK, for which the Kd was determined as 0.649 µM in [2] (setting [46]), 0.129 µM in assay [3] (setting [46]) and 0.0748 µM in [4] (setting [46]).
